The values that follow come from US8703460B2, “Method for the production of an additive for the enzymatic decomposition of mycotoxins, additive, and use thereof” (Erber Aktiengesellschaft, priority 2008, dated 2014).

One data set concerns piglets. The data set is described as follows: Feeding test with piglets. To be noted: Positive control: 4-5.5 ppm fumonisin B1 in feed, no enzyme. The class given is in vivo, pigs. The method, then: The test was performed in a test stable with 12 stalls for 10 animals each. The stable was equipped with a slatted floor, pan troughs and a computer-controlled feeding system. The automats were arranged along the stall walls. Every day, the stable climate was automatically recorded, and the temperature was set according to the standard recommendations for piglet breeding.
For this test, 120 mixed-sex weaned pigs (age: about 4 weeks, average setting weight: 8.21 kg) were used. Each piglet was earmarked and individually weighed. The 120 piglets were randomly distributed among 12 stalls. All piglets came from the Austrian Breeding Program ÖHYB (=(large white×landrace)×Pietrain).
Immediately upon weaning, the piglets were fed with a starter feed for two days, after this settling-in period the changeover to the test feed took place. Feeding was effected in two phases: Weaning phase days 1-14, breeding phase days 15-42. The test feed was mixed individually per stall via the spotmix feeding installation and allotted in dry form twice a day as a function of the number of piglets, weight development and feed consumption. Water was available ad libitum. The 12 stalls were divided into four different application groups at three repetitions each and received the following admixtures in the above-described feed: […]

A short description of data set [1]: Catalytic activity of HFB1 aminotransferase in E. coli lysate. It counts as biochemical. As to conditions: 25° C.; for degradation of the hydrolyzed fumonisin to 2-keto-HFB1: cosubstrate added (α-keto acid e.g. pyruvic acid, or oxalacetate); for reduction of the hydrolyzed FB1 concentration: no cosubstrate, 50 mM sodium phosphate buffer. The method, then:
Sequences ID Nos. 18 and 24 were cloned using standard procedures and expressed in E. coli under the control of a bacteriophage T7 promoter. The bacterial cells were collected, resuspended in 50 mM sodium phosphate buffer and lyzed under ultrasonic action. Hydrolyzed fumonisin was added, and the samples were incubated at 25° C. Samples were taken at time intervals and analyzed by HPLC-MS/MS. No reduction of the hydrolyzed FB1 concentration was observed. […] This substance is totally harmless for mammals.

The format of data set [2] is biochemical. As to conditions: corn mash after carboxylesterase treatment; FIG. 5. How it is done:
Samples of corn mash for the production of bioethanol were taken and incubated at 30 to 65° C. under stirring, the degradation of fumonisin B1 having been investigated after the addition of 770 units of carboxylesterase ID No. 9 per cubic meter of mash under stirring (stirring time in minutes). Samples were inactivated by boiling-up after having been taken and subsequently centrifuged for analysis, and an aliquot of the supernatant was evaporated. The residue was taken up in 200 μl sample buffer containing C^13-labelled internal fumonisin standard, shaken for 1.5 min, centrifuged off, and then subjected to LC-MS-analysis.

`CCCC[C@@H](C)[C@@H](OC(=O)C[C@@H](CC(=O)O)C(=O)O)[C@H](C[C@@H](C)C[C@H](O)CCCC[C@@H](O)C[C@H](O)[C@H](C)N)OC(=O)C[C@@H](CC(=O)O)C(=O)O` [fumonisin B1]: in the data set with piglets, the respiratory problems observed result is reported as “almost half of the animals”. Also, the “Final weight (average, kg)” value in the data set with piglets (42 days) was determined as 24.77 kg.

B1: aminotransferase ID No. 25: HFB1 aminotransferase encoded by sequence ID No. 24 (protein, listed as Caulobacter sp.)
chain: MELSRQRDQALRERAQAVIPGGMYGHESTYLMPEGTPQFFSRGKGARLWDADGNEYVDYMCAYGPNLLGYGFEPVEAAAAAQQARGDTLTGPSEVMVQLAEDFVAQISHADWAMFCKNGTDATSMAMVIARAHTGRKTILCAKGAYHGAAPWCTPILAGTLPEDRAFVVYYDYNDAQSLVDAFEAHQDDVAAIFATPHRHEVFSDQIDPDPEYAASVRALCDKSGALLVVDEVRAGFRIARDCSWAKIGVAPDLSTWGKCFANGYPISAVLGGEKVRSAAKAVYVTGSFWFSATPMAAAVETLKQIRETDYLERINAAGTRLREGLQQQAAHNGFTLRQTGPVSMPQVLFEEDPDFRVGYGWVRECLKRGVYFSPYHNMFLSAAHSEADLAKTLAATGDAFVELRAKLPSLEIHQPLLALRAA
modifications: Seq ID 25
Take B1: in data set [1], the “degradation of the hydrolyzed fumonisin to 2-keto-HFB1” value is “complete degradation” and the “reduction of the hydrolyzed FB1 concentration” value is “No reduction”.

B2: aminotransferase ID No. 19: HFB1 aminotransferase encoded by fumI (sequence ID No. 18) (protein, listed as Sphingopyxis sp.)
chain: MANGTRQKDLRERAERVIPGGMYGHESTRLLPPEFPQFFRRALGARIWDADEQPYIDYMCAYGPNLLGYRQSEIEAAADAQRLLGDTMTGPSEIMVNLAEAFVGMVRHADWAMFCKNGSDATSTAMVLARAHTGRKTILCAKGAYHGASPWNTPHTAGILASDRVHVAYYTYNDAQSLSDAFKAHDGDIAAVFATPFRHEVFEDQALAQLEFARTARKCCDETGALLVVDDVRAGFRVARDCSWTHLGIEPDLSCWGKCFANGYPISALLGSNKARDAARDIFVTGSFWFSAVPMAAAIETLRIIRETPYLETLIASGAALRAGLEAQSQRHGLELKQTGPAQMPQIFFADDPDFRIGYAWAAACLKGGVYVHPYHNMFLSAAHTVDDVTETLEATDRAFSAVLRDFASLQPHPILMQLAGA
modifications: Seq ID 19 (FumI)
B2: in data set [2], the “degradation of hydrolyzed fumonisin HFB1” value is on record as “completely degraded”. In data set [1], the “degradation of the hydrolyzed fumonisin to 2-keto-HFB1” value is given as “complete degradation” and the “reduction of the hydrolyzed FB1 concentration” value is “No reduction”.
